Test results: patent publication US12667625B2, “Antibody-drug conjucates and their uses for the treatment of cancer” (INATHERYS, priority 2018, dated 2026)

What was measured:
THP-1 cell line (CD71+) = assay: Comparative binding on THP-1 cell line by flow cytometry; details: biotinylated antibodies, serial dilutions 5 to 0.05 ug/mL, streptavidin Alexa F488
Description: (§1) Serial dilutions (5 to 0.05 ug/mL) of both biotinylated antibodies (antibody A24 and antibody of ADC INA01-SDV1) were performed and incubated on THP-1 and MEC-1 cell lines. The binding of the diluted antibodies was detected by Flow cytometry using streptavidin Alexa F488 (available at ThermoFisher scientific).

MEC-1 cell line (CD71+) = assay: Comparative binding on MEC-1 cell line by flow cytometry; details: biotinylated antibodies, serial dilutions 5 to 0.05 ug/mL, streptavidin Alexa F488
Description: as §1

B1: A24: murine monoclonal anti-human TfR antibody as disclosed in WO 2005/111082 (antibody, listed as Homo sapiens, V domains shown)
VH: QIQLVQSGPELKKPGETVKISCKASGYTFTNQGMNWVKQAPGKGLKWMGWINTYTGEPINADDFKGRFAISLETSASTAYLQINNLKNEDMATYFCVREGWDSMDYWGQGTSVTVSS
VL: QIVLTQSPAIMSASPGEKVTITCSASSSVNYMHWFQQKPGTSPKLWIYSTSNLASGVPARFSGSGSGTSYSLTISRMEAEDAATYYCQQRSSYPLTFGAGTKLELKR
For B1, the “affinity to the CD71+ cell line (binding)” value (THP-1 cell line (CD71+)) was “identical affinity” and the “affinity to the CD71+ cell line (binding)” value (MEC-1 cell line (CD71+)) was “identical affinity”.
